{
  "source": "patent US20250197485A1",
  "about": "“Anti-ED-A Antibodies for the Treatment of Pulmonary Hypertension” (Universitätsklinikum Jena, priority 2022, published 2025)",
  "molecules": {"B1": {"name": "F8 IgG: Chimaeric anti-ED-A antibody: human F8 VH/VL fused to murine IgG2a constant regions; heavy chain SEQ ID NO: 11, light chain SEQ ID NO: 12 (antibody)", "heavy": "EVQLLESGGGLVQPGGSLRLSCAASGFTFSLFTMSWVRQAPGKGLEWVSAISGSGGSTYYADSVKGRFTISRDNSKNTLYLQMNSLRAEDTAVYYCAKSTHLYLFDYWGQGTLVTVSSAKTTAPSVYPLAPVCGDTTGSSVTLGCLVKGYFPEPVTLTWNSGSLSSGVHTFPAVLQSDLYTLSSSVTVTSSTWPSQSITCNVAHPASSTKVDKKIEPRGPTIKPCPPCKCPAPNLLGGPSVFIFPPKIKDVLMISLSPIVTCVVVDVSEDDPDVQISWFVNNVEVHTAQTQTHREDYNSTLRVVSALPIQHQDWMSGKEFKCKVNNKDLPAPIERTISKPKGSVRAPQVYVLPPPEEEMTKKQVTLTCMVTDFMPEDIYVEWTNNGKTELNYKNTEPVLDSDGSYFMYSKLRVEKKNWVERNSYSCSVVHEGLHNHHTTKSFSRTPGK", "light": "EIVLTQSPGTLSLSPGERATLSCRASQSVSMPFLAWYQQKPGQAPRLLIYGASSRATGIPDRFSGSGSGTDFTLTISRLEPEDFAVYYCQQMRGRPPTFGQGTKVEIKRTDAAPTVSIFPPSSEQLTSGGASVVCFLNNFYPKDINVKWKIDGSERQNGVLNSWTDQDSKDSTYSMSSTLTLTKDEYERHNSYTCEATHKTSTSPIVKSFNRNEC"}},
  "key": {"MCT-induced PH [1]": {"test_system": "MCT-induced PH", "assay": "Echocardiographic assessment in mouse model of MCT-induced PH", "assay_type": "in vivo, C57BL/6 mice", "source_text": "PH was induced in C57BL/6 mice (bodyweight: 25-30 g). The animals were obtained from ZET facility (Zentale Experimentelle Tierhaltung) of the University Hospital Jena (UKJ, Jena, Germany). Prior to PH induction, mice were allowed to acclimatize for at least 7 days with ad libitum access to food and water as well as controlled light/dark cycles. 41 animals were investigated divided into the following five experimental groups: • 1) sham induced controls (n=7) • 2) MCT induced PH (n=12) • 3) MCT induced PH+MAC (n=6) • 4) MCT induced PH+F8 IgG (n=8) • 5) MCT induced PH+KSF IgG (n=8) For PH induction, the Monocrotaline (MCT, Carl Roth, Germany) method was used. The sham induced controls were injected with 30 μl NaCl not containing MCT at day 1 (single dose; intraperitoneally, i.p.). […] The other 4 experimental groups were injected with MCT to induce PH (single dose; intraperitoneally, i.p.; 60 mg/kg body weight; volume 30 μl). Animals in the MCT induced PH+MAC group received the drug (Macitentan, Actelion Pharmaceuticals Ltd.) from day 14 to day 28 (once daily; per os; 15 mg/kg body weight). Animals in the MCT induced PH+F8 IgG group received F8 IgG 3 times on day 14, 16 and 18 (intravenously, i.v.; 195 μg/injection; volume 200 μl). Similarly, animals in the MCT induced PH+KSF IgG group received KSF IgG 3 times on day 14, 16 and 18 (intravenously, i.v.; 195 μg/injection; volume 120 μl). Echocardiographic assessment was performed on day 28 using the Vevo 770 Rodent-Ultrasound-System, Visual Sonic, Canada, 17 MHz probe RMV176. Before echocardiography, mice were anesthetized with isoflurane for a duration time of less than 10 minutes (isoflurane-CP, 2.5V %, FiO2 1.0, oxygen per inhalation-flow dosage). Body temperature and respiratory rate were continuously monitored. All surrogate parameters of right ventricular (RV) morphology and function were assessed, among others, RV basal and medial diameters (in mm), RV length (in mm), tricuspid annular plane systolic excursion (TAPSE, in mm), right atrial area (RA area, in mm^2) or main pulmonary artery diameter (MPA, in mm). Statistical analyses were performed using IBM SPSS statistical software, version 28.0 (IBM SPSS Statistics for Windows. Armonk, NY, USA). Data are expressed as mean±standard deviation. Kruskal-Wallis and Mann-Whitney-U test were used to test for significant differences between the different groups. A p-value<0.05 as statistically significant."}, "MCT-induced PH [2]": {"test_system": "MCT-induced PH", "assay": "Histological evaluation of lung tissue damage (sum-score) in mouse model of MCT-induced PH", "assay_type": "in vivo, C57BL/6 mice", "source_text": "PH was induced in C57BL/6 mice (bodyweight: 25-30 g). The animals were obtained from ZET facility (Zentale Experimentelle Tierhaltung) of the University Hospital Jena (UKJ, Jena, Germany). Prior to PH induction, mice were allowed to acclimatize for at least 7 days with ad libitum access to food and water as well as controlled light/dark cycles. 41 animals were investigated divided into the following five experimental groups: • 1) sham induced controls (n=7) • 2) MCT induced PH (n=12) • 3) MCT induced PH+MAC (n=6) • 4) MCT induced PH+F8 IgG (n=8) • 5) MCT induced PH+KSF IgG (n=8) For PH induction, the Monocrotaline (MCT, Carl Roth, Germany) method was used. The sham induced controls were injected with 30 μl NaCl not containing MCT at day 1 (single dose; intraperitoneally, i.p.). […] The other 4 experimental groups were injected with MCT to induce PH (single dose; intraperitoneally, i.p.; 60 mg/kg body weight; volume 30 μl). Animals in the MCT induced PH+MAC group received the drug (Macitentan, Actelion Pharmaceuticals Ltd.) from day 14 to day 28 (once daily; per os; 15 mg/kg body weight). Animals in the MCT induced PH+F8 IgG group received F8 IgG 3 times on day 14, 16 and 18 (intravenously, i.v.; 195 μg/injection; volume 200 μl). Similarly, animals in the MCT induced PH+KSF IgG group received KSF IgG 3 times on day 14, 16 and 18 (intravenously, i.v.; 195 μg/injection; volume 120 μl). Microscopic evaluation to assess histopathological lung tissue damage was performed using H&E as well as Sirius Red stained lung tissue sections according to a defined sum-score (between 0 and 12; maximum score value=highest level of tissue damage) integrating certain histological alterations frequently occurring in PH: percentage of atelectasis area, percentage of emphysema area, degree of media hypertrophy of peribronchial arteries, presence of perivascular cellular edema of peribronchial arteries, and degree of media hypertrophy of small arteries. Statistical analyses were performed using IBM SPSS statistical software, version 28.0 (IBM SPSS Statistics for Windows. Armonk, NY, USA). Data are expressed as mean±standard deviation. Kruskal-Wallis and Mann-Whitney-U test were used to test for significant differences between the different groups. A p-value<0.05 as statistically significant."}, "[3]": {"details": "in contrast to treatment with KSF IgG"}},
  "data": [
    {"molecule": "B1", "values": [
      {"measurement": "RV medial diameter compared to the negative controls", "setting": "MCT-induced PH [1]; day 28, all groups p<0.05, F8 IgG p=0.028", "value": "significantly increased"},
      {"measurement": "RV basal diameter compared with the MCT-induced PH group without treatment", "setting": "MCT-induced PH [1]; day 28, p=0.002", "value": "significant attenuation"},
      {"measurement": "RA area compared with the MCT-induced PH group with MAC treatment", "setting": "MCT-induced PH [1]; day 28, p=0.003", "value": "significant reduction"},
      {"measurement": "TAPSE compared to the MCT-induced PH group with MAC treatment", "setting": "MCT-induced PH [1]; day 28, p=0.003", "value": "significant improvement"},
      {"measurement": "TAPSE compared to the MCT-induced PH group without treatment", "setting": "MCT-induced PH [1]; day 28, p=0.004", "value": "significant improvement"},
      {"measurement": "RV basal diameter compared with the MCT-induced PH group with KSF IgG treatment", "setting": "MCT-induced PH [1]; day 28, p=0.005", "value": "significant attenuation"},
      {"measurement": "RV basal diameter compared with the MCT-induced PH group with MAC treatment", "setting": "MCT-induced PH [1]; day 28, p=0.005", "value": "significant attenuation"},
      {"measurement": "RA area compared with the MCT-induced PH group with KSF IgG treatment", "setting": "MCT-induced PH [1]; day 28, p=0.009", "value": "significant reduction"},
      {"measurement": "RV medial diameter compared with the MCT-induced PH group with KSF IgG treatment", "setting": "MCT-induced PH [1]; day 28, p=0.010", "value": "significantly reduced"},
      {"measurement": "RV medial diameter compared with the MCT-induced PH group without treatment", "setting": "MCT-induced PH [1]; day 28, p=0.017", "value": "significantly reduced"},
      {"measurement": "RA area compared with the MCT-induced PH group without treatment", "setting": "MCT-induced PH [1]; day 28, p=0.021", "value": "significant reduction"},
      {"measurement": "TAPSE compared to the MCT-induced PH group with KSF IgG treatment", "setting": "MCT-induced PH [1]; day 28, p=0.049", "value": "significant improvement"},
      {"measurement": "echocardiographic signs of right ventricular load and dysfunction", "setting": "MCT-induced PH [1]; [3]", "value": "improvement"},
      {"measurement": "histopathological lung tissue damage (sum-score 0 to 12) compared to the MCT-induced PH group without treatment", "setting": "MCT-induced PH [2]; MAC p=0.020, F8 IgG p=0.005, KSF IgG p=0.907", "value": "significantly reduced"},
      {"measurement": "histopathological lung tissue damage (sum-score 0 to 12) compared to negative controls", "setting": "MCT-induced PH [2]; all groups p<0.05, F8 IgG p=0.002", "value": "significantly increased"},
      {"measurement": "lung tissue damage at the histopathological level", "setting": "MCT-induced PH [2]; [3]", "value": "attenuation"}
    ]}
  ]
}
